Experiment [1] concerns the target Aβ (1-40), beta-amyloid protein of Alzheimer's disease (UniProt P05067). As to the kind of experiment: cell-based or functional assay.
Experiment [2] has the same target. The experiment in a line: solid phase binding immunoassay, Aβ (1-40) on microtiter wells, laminin in solution, anti-laminin detection, one-site fit.

Chain of Aβ (1-40), beta-amyloid protein of Alzheimer's disease (P05067 672-711 limits assumed): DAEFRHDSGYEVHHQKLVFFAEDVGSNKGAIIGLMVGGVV

In experiment [1], “Engelbreth-Holm-Swarm (EHS) mouse tumor laminin, P02468 34-1607” had a Thioflavin T fluorescence (Aβ (1-40) amyloid fibril formation), 25 µM Aβ with 100 nM laminin, 1 week of 27.1 fold lower; a Thioflavin T fluorescence (Aβ (1-40) amyloid fibril formation), 25 µM Aβ with 100 nM laminin, 1 hour of 2.9 fold lower; a Thioflavin T fluorescence (Aβ (1-40) amyloid fibril formation), 25 µM Aβ with 100 nM laminin, 1 day of 4.6 fold lower; a Thioflavin T fluorescence (Aβ (1-40) amyloid fibril formation), 25 µM Aβ with 100 nM laminin, 3 days of 30.6 fold lower. In experiment [1], this substance displayed a Thioflavin T fluorescence (Aβ fibrillogenesis), second study, 25 µM Aβ with 100 nM laminin, 1 week (fold decrease) of 21; a Thioflavin T fluorescence (Aβ fibrillogenesis), second study, 25 µM Aβ with 100 nM laminin, 1 day (fold decrease) of 9; a Thioflavin T fluorescence (Aβ fibrillogenesis), second study, 25 µM Aβ with 100 nM laminin, 3 days (fold decrease) of 9; a dissolution of pre-formed Aβ amyloid fibrils (Thioflavin T fluorometry, 4 days), 16 nM laminin of 25%. In experiment [1], the dissolution of pre-formed Aβ amyloid fibrils (Thioflavin T fluorometry, 4 days), 31 nM laminin was 28%; the dissolution of pre-formed Aβ amyloid fibrils (Thioflavin T fluorometry, 4 days), 63 nM laminin was determined as 39%; the dissolution of pre-formed Aβ amyloid fibrils (Thioflavin T fluorometry, 4 days), 125 nM laminin amounted to 41%. This substance came in with a Kd in experiment [2] of 2.7 nM.

Source of the values: patent US20020111309A1.
